Test results from article PMC10572780, “MucR from Sinorhizobium meliloti: New Insights into Its DNA Targets and Its Ability to Oligomerize” (International Journal of Molecular Sciences, 2023).

Experiments:
rMucR (recombinant MucR) [1] = target: T1, rMucR (recombinant MucR) (Sinorhizobium meliloti 1021, UniProt P55323 1-143); test: EMSA; 20 pmol rMucR, 10 pmol DNA, no competitor; 25 mM HEPES pH 7.9, 50 mM KCl, 6.25 mM MgCl2, 5% glycerol; 10 min on ice (plus 10 min on ice after competitor); 5% polyacrylamide gel, 0.5x TBE, room temperature, 200 V, 70 min; conditions: protein: recombinant; tags: none (pET22b+, NdeI/XhoI, native stop codon in reverse primer); chain copies: 10; label: FAM
T1 sequence: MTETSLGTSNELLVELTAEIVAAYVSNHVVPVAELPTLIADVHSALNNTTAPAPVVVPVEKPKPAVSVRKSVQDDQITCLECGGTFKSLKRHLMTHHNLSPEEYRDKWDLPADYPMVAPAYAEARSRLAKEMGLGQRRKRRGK

native MucR = target: T2, native MucR (Sinorhizobium meliloti 1021, UniProt P55323 2-143); test: EMSA; 25 mM HEPES pH 7.9, 50 mM KCl, 6.25 mM MgCl2, 5% glycerol; 10 min on ice (plus 10 min on ice after competitor); 5% polyacrylamide gel, 0.5x TBE, room temperature, 200 V, 70 min; conditions: protein: native; tags: none
T2 sequence: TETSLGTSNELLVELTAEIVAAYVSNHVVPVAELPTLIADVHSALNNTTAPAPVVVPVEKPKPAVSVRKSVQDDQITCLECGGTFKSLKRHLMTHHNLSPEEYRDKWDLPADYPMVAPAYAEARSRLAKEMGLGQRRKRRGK

[2] = target: the molecule itself; test: SEC-MALS; samples at 1 mg/mL on Superdex 200 in the buffer of the final purification step, 0.5 mL/min; MiniDAWN Treos; higher-order oligomer, no monomer or lower-order oligomers seen
rMucR (recombinant MucR) [3] = target: T1, rMucR (recombinant MucR); test: competition; vs FAM-rem site3; 5-, 10-, 20-fold excess; does not effectively compete; 25 mM HEPES pH 7.9, 50 mM KCl, 6.25 mM MgCl2, 5% glycerol; 10 min on ice (plus 10 min on ice after competitor); 5% polyacrylamide gel, 0.5x TBE, room temperature, 200 V, 70 min; conditions: protein: recombinant; tags: none (pET22b+, NdeI/XhoI, native stop codon in reverse primer); chain copies: 10
rMucR (recombinant MucR) [4] = target: T1, rMucR (recombinant MucR); test: EMSA; 10 pmol DNA; 25 mM HEPES pH 7.9, 50 mM KCl, 6.25 mM MgCl2, 5% glycerol; 10 min on ice (plus 10 min on ice after competitor); 5% polyacrylamide gel, 0.5x TBE, room temperature, 200 V, 70 min; conditions: protein: recombinant; tags: none (pET22b+, NdeI/XhoI, native stop codon in reverse primer); chain copies: 10
rMucR (recombinant MucR) [5] = target: T1, rMucR (recombinant MucR); test: EMSA; minimal length with detectable binding; 25 mM HEPES pH 7.9, 50 mM KCl, 6.25 mM MgCl2, 5% glycerol; 10 min on ice (plus 10 min on ice after competitor); 5% polyacrylamide gel, 0.5x TBE, room temperature, 200 V, 70 min; conditions: protein: recombinant; tags: none (pET22b+, NdeI/XhoI, native stop codon in reverse primer); chain copies: 10

B1: FAM-labeled rem site3 (dsDNA)
DNA 1: CACGCAATTCTTAATCAACTATTAAAATCC
DNA 2: GGATTTTAATAGTTGATTAAGAATTGCGTG
Does B1 bind (rMucR (recombinant MucR) [1])?
Result: binds

B2: ndvA upstream region oligonucleotide (dsDNA)
DNA 1: GATAATTCTTCATATCACGCCCGGTCTTGCAGGAAACCTGCAAAAACTCGGAGTCGAGGCATCAAGATAGCTAACGATGAATCAT
DNA 2: ATGATTCATCGTTAGCTATCTTGATGCCTCGACTCCGAGTTTTTGCAGGTTTCCTGCAAGACCGGGCGTGATATGAAGAATTATC
Does B2 bind (native MucR)?
Result: binds

B3: recombinant S. meliloti MucR (natural protein, Sinorhizobium meliloti 1021, UniProt P55323 1-143, looked up)
chain: T1 sequence
notes: Expressed with 100 uM zinc sulfate; Oligomer by SEC-MALS corresponds to a decamer (9 to 12 protomers not excluded); also called rMucR; recombinant MucR; source: E. coli BL21(DE3), pET22b+, purified (cation exchange chromatography, size exclusion chromatography); copies: 10
B3 was tested. Which “stoichiometry N” value [2] did it give?
Its value is 10.

B4: rem site3 mut2 (dsDNA)
DNA 1: CGCGCGGCCCCCGGCCGGCCGCCGGGGCCC
DNA 2: GGGCCCCGGCGGCCGGCCGGGGGCCGCGCG
Does B4 bind (rMucR (recombinant MucR) [3])?
Result: no binding

B5: rem site1 (dsDNA)
DNA 1: ATCACCTACTAGATATAGGCCCAAATCGGC
DNA 2: GCCGATTTGGGCCTATATCTAGTAGGTGAT
Does B5 bind (rMucR (recombinant MucR) [4])?
Result: binds

B6: rem site3 18 bp (dsDNA)
DNA 1: ATTCTTAATCAACTATTA
DNA 2: TAATAGTTGATTAAGAAT
Does B6 bind (rMucR (recombinant MucR) [5])?
Result: binds

B7: rem site2 (dsDNA)
DNA 1: CATCATGTTAGTGGTAAGGTTAACGATCAC
DNA 2: GTGATCGTTAACCTTACCACTAACATGATG
Does B7 bind (rMucR (recombinant MucR) [4])?
Result: binds

B8: rem site3 (dsDNA)
DNA 1: B1 DNA 1
DNA 2: B1 DNA 2
Does B8 bind (rMucR (recombinant MucR) [4])?
Result: binds

B9: MucR purified from S. meliloti (natural protein, Sinorhizobium meliloti 1021, UniProt P55323 2-143, looked up)
chain: T2 sequence
notes: MucR from Sinorhizobium meliloti 1021, naturally expressed; 9 to 12 protomers not excluded; also called native MucR; naturally expressed MucR; source: endogenous, purified from S. meliloti 1021 (cation exchange chromatography, size exclusion chromatography); copies: 10
How did the “stoichiometry N” value [2] turn out when B9 was run?
Its value is 10.
